# Measurements as given in patent publication US20230235039A1.
# Target: human recombinant IL-5 protein with a histidine tag at carboxyl terminal (human) (UniProt P05113)
# Assay: cell-based or functional assay
row,Binder,EC50 for neutralizing IL-5-induced TF-1 cell proliferation
1,"Fc fusion protein of anti-IL-5 single-domain antibody 4G8 (Fc fusion, not shown: a dimerising Fc or GST) chain (part 1 of 2): QVQLVESGGGSVQAGGSLRLSCAASGITSSTSCMGWFRQSPGKEREGSLATIYDGAISYADSVKGRFTISVDNAKNILYLQMNNLKPEDTAMYYCAAAKYCMFWSDPSYWGQGTQVTVSS chain (part 2 of 2): HHHHHH",0.176
2,"Fc fusion protein of anti-IL-5 single-domain antibody 1B8 (Fc fusion, not shown: a dimerising Fc or GST) chain (part 1 of 2): QVQLVESGGGSVQAGGSLRLSCAASGITASTSCMGWFRQSPGKEREGSLATIYDGSTSYADSVKGQFTISVDNAKNILYLQMNNLKPEDTAMYYCAAAKYCMFWSHPSYWGQGTQVTVSS chain (part 2 of 2): HHHHHH",0.175
3,"Fc fusion protein of anti-IL-5 single-domain antibody 2G6 (Fc fusion, not shown: a dimerising Fc or GST) chain (part 1 of 2): QVQLVESGGGSVQAGGSLRLSCAASGITSSTSCMGWFRQSPGKEREGSLATIYDGNISYADSVKGRFTISVDNAKNILYLQMNNLKPEDTAMYYCAAAKYCMFWSDPSYWGQGTQVTVSS chain (part 2 of 2): HHHHHH",0.188
4,"Fc fusion protein of anti-IL-5 single-domain antibody 2F7 (Fc fusion, not shown: a dimerising Fc or GST) chain (part 1 of 2): QVQLVESGGGSVQAGGSLRLSCAASGITASTSCMGWFRQSPGKEREGSLATIYDGSTSYADSVKGRFTISVDNAKNILYLQMNNLKPADTAMYYCAAAKYCMFWSHPSYWGQGTQVTVSS chain (part 2 of 2): HHHHHH",0.15
5,"Fc fusion protein of anti-IL-5 single-domain antibody 1F4 (Fc fusion, not shown: a dimerising Fc or GST) chain (part 1 of 2): QVQLVESGGGSAQAGGSLRLSCAASGNTLDLMAWFRQAPGKEREGVAGIYSSGTTYYADSVKGRFTVSRDNAKNTVYLQMNSLKPEDAAMYYCAAKVSWYGRWYQSETYEYWGQGTQVTVSS chain (part 2 of 2): HHHHHH",0.1
6,"Fc fusion protein of anti-IL-5 single-domain antibody 3G12 (Fc fusion, not shown: a dimerising Fc or GST) chain (part 1 of 2): QVQLVESGGGSVQAGGSLRLSCVASGLTLNDVSMAWFRQAPGKEREEVAGIDIDGLISYADSVKGRFTISKDNAQNTLYLQMNSLKPEDTAMYSCAAVRLYFSSSRNQYKYEGQGTQVTVSS chain (part 2 of 2): HHHHHH",2.09
7,"Fc fusion protein of anti-IL-5 single-domain antibody 4C3 (Fc fusion, not shown: a dimerising Fc or GST) chain (part 1 of 2): QVQLVESGGGSVQAGGSLRLSCVASGLTLNDVSMAWFRQAPGKEREEVAGIDIDGLISYADPVKGRFTISKDNAQNTMYLQMNSLKPEDTAMYSCAAVRLYFSSSRNQYKYEGQGTQVTVSS chain (part 2 of 2): HHHHHH",4.4
8,"Fc fusion protein of anti-IL-5 single-domain antibody 4B12 (Fc fusion, not shown: a dimerising Fc or GST) chain (part 1 of 2): QVQLVESGGGSVQPGGSLRLSCAASGNTFSFSTYCMGWFRQSPGKEREGSLATIYDGSTAYAGSVKGRFTVSVDNAKNILYLQMNNLKPEDTAMYYCASAKYCMFWSDPSYWGQGTQVTVSS chain (part 2 of 2): HHHHHH",0.196
9,"Fc fusion protein of anti-IL-5 single-domain antibody 4D5 (Fc fusion, not shown: a dimerising Fc or GST) chain (part 1 of 2): QVQLVESGGGSVQAGGSLRLSCAASGNTFSTSTYCMGWFRQSPGKEREGSLATIYDGSTAYAGSVKGRFTISVDNAKNILYLQMNNLKPEDTAMYYCAAAKYCMFWSDPSYWGQGTQVTVSS chain (part 2 of 2): HHHHHH",0.427

# More lines, now with the values ahead:
row,EC50 for neutralizing IL-5-induced TF-1 cell proliferation,Binder
1,0.219,"humanized Fc-fused single-domain antibody 1B3-V3 (Fc fusion, not shown: a dimerising Fc or GST) chain (part 1 of 2): QVQLVESGGGSVQAGGSLRLSCAASGITASTSCMGWFRQSPGKEREGSLATIYDASTSYADSVKGRFTISVDNAKNILYLQMNNLKPEDTAMYYCAAARYCMFWSHPSYWGQGTQVTVSS chain (part 2 of 2): HHHHHH"
2,0.237,"humanized Fc-fused single-domain antibody 1B3-V4 (Fc fusion, not shown: a dimerising Fc or GST) chain (part 1 of 2): QVQLVESGGGSVQAGGSLRLSCAASGITASTSCMGWFRQSPGKEREGSLATIYDASTSYADSVKGRFTISRDNAKNILYLQMNNLRAEDTAVYYCAAARYCMFWSHPSYWGQGTQVTVSS chain (part 2 of 2): HHHHHH"
3,0.189,"Fc fusion protein of anti-IL-5 single-domain antibody 4H2 (Fc fusion, not shown: a dimerising Fc or GST) chain (part 1 of 2): QVQLVESEGGSVQAGGSLRLSCAVSGITSSTACMGWFRQSPGKEREGSLATIYDGSISYADSVKGRFTISVDNAKNILYLQMNNLKPEDTAMYYCAAAKYCMFWSDPSYWGQGTQVTVSS chain (part 2 of 2): HHHHHH"
4,0.274,"humanized Fc-fused single-domain antibody 1B3-V5 (Fc fusion, not shown: a dimerising Fc or GST) chain (part 1 of 2): QVQLVESGGGSVQAGGSLRLSCAASGITASTSCMGWFRQSPGKEREGSLATIYDGSTSYADSVKGRFTISRDNSKNILYLQMNNLRAEDTAVYYCAAARYCMFWSHPSYWGQGTQVTVSS chain (part 2 of 2): HHHHHH"
5,0.0664,"Tab2 (control antibody 2), reslizumab (antibody, INN chains, looked up, V domains shown) VH: EVQLVESGGGLVQPGGSLRLSCAVSGLSLTSNSVNWIRQAPGKGLEWVGLIWSNGDTDYNSAIKSRFTISRDTSKSTVYLQMNSLRAEDTAVYYCAREYYGYFDYWGQGTLVTVSS VL: DIQMTQSPSSLSASVGDRVTITCLASEGISSYLAWYQQKPGKAPKLLIYGANSLQTGVPSRFSGSGSATDYTLTISSLQPEDFATYYCQQSYKFPNTFGQGTKVEVK"
6,2.82,"humanized Fc-fused single-domain antibody 1B3-V1 (Fc fusion, not shown: a dimerising Fc or GST) chain (part 1 of 2): QVQLVESGGGLVQPGGSLRLSCAASGITASTSCMGWFRQAPGKGLEAVAATIYDGSTYYADSVKGRFTISRDNSKNTLYLQMNSLRAEDTAVYYCAAARYCMFWSHPSYWGQGTLVTVSS chain (part 2 of 2): HHHHHH"
7,0.234,"Tab1 (control antibody 1), mepolizumab (antibody, INN chains, looked up, V domains shown) VH: QVTLRESGPALVKPTQTLTLTCTVSGFSLTSYSVHWVRQPPGKGLEWLGVIWASGGTDYNSALMSRLSISKDTSRNQVVLTMTNMDPVDTATYYCARDPPSSLLRLDYWGRGTPVTVSS VL: DIVMTQSPDSLAVSLGERATINCKSSQSLLNSGNQKNYLAWYQQKPGQPPKLLIYGASTRESGVPDRFSGSGSGTDFTLTISSLQAEDVAVYYCQNVHSFPFTFGGGTKLEIK"

# Target: human recombinant IL-5 protein with a histidine tag at carboxyl terminal (human) (UniProt P05113)
# Assay: BLI (Octet 96), binding molecule on sensor, IL-5 antigen 200 nM and 2-fold dilutions
Kd,koff,kon,Binder
0.99 nM,8.22e-05 s⁻¹,82600 M⁻¹ s⁻¹,"Tab1 (control antibody 1), mepolizumab (antibody, INN chains, looked up, V domains shown) VH: QVTLRESGPALVKPTQTLTLTCTVSGFSLTSYSVHWVRQPPGKGLEWLGVIWASGGTDYNSALMSRLSISKDTSRNQVVLTMTNMDPVDTATYYCARDPPSSLLRLDYWGRGTPVTVSS VL: DIVMTQSPDSLAVSLGERATINCKSSQSLLNSGNQKNYLAWYQQKPGQPPKLLIYGASTRESGVPDRFSGSGSGTDFTLTISSLQAEDVAVYYCQNVHSFPFTFGGGTKLEIK"

# Target: IL-5 protein (Novoprotein, Cat #CS 33) (human) (UniProt P05113)
# Assay: indirect ELISA on IL-5 protein, antibody titrated, OD450
row,EC50 (read off the curve),Binder
1,0.8 nM,"Tab2 (control antibody 2), reslizumab (antibody, INN chains, looked up, V domains shown) VH: EVQLVESGGGLVQPGGSLRLSCAVSGLSLTSNSVNWIRQAPGKGLEWVGLIWSNGDTDYNSAIKSRFTISRDTSKSTVYLQMNSLRAEDTAVYYCAREYYGYFDYWGQGTLVTVSS VL: DIQMTQSPSSLSASVGDRVTITCLASEGISSYLAWYQQKPGKAPKLLIYGANSLQTGVPSRFSGSGSATDYTLTISSLQPEDFATYYCQQSYKFPNTFGQGTKVEVK"
